The test concerns the target Peptide 1593 (…) (Mycobacterium tuberculosis). In words: SPR (Biacore), IgG amine-coupled, peptide as analyte. On the technique in general: In SPR one partner is held on a chip, and binding of the other changes the refractive index at the surface.

B1: 65D3 mutant IgG variant 2 (S55W-VH + S57T-VL) (antibody)
heavy: QSLEESGGRLVTPGGSLTLTCTVSGFSLSTHDISWVRQAPGKGLEWIGVIARRGWTYYASWAKGRFTISKTSTTVDLKITSPTIEDTATYFCAREEFDFWGQGTLVTVSSGQPKAPSVFPLAPCCGDTPSSTVTLGCLVKGYLPEPVTVTWNSGTLTNGVRTFPSVRQSSGLYSLSSVVSVTSSSQPVTCNVAHPATNTKVDKTVAPSTCSKPTCPPPELLGGPSVFIFPPKPKDTLMISRTPEVTCVVVDVSQDDPEVQFTWYINNEQVRTARPPLREQQFNSTIRVVSTLPIAHQDWLRGKEFKCKVHNKALPAPIEKTISKARGQPLEPKVYTMGPPREELSSRSVSLTCMINGFYPSDISVEWEKNGKAEDNYKTTPAVLDSDGSYFLYSKLSVPTSEWQRGDVFTCSVMHEALHNHYTQKSISRSPGK
light: AVLTQTASPVSAAVGGTVTISCQSSQSVYNNKELSWFQQKPGQPPKLLISYASTLATGVPSRFKGSGSGTQFTLTISDLECDDAATYYCLGGYASTIDMWAFGGGTEVVVKGDPVAPTVLIFPPAADQVATGTVTIVCVANKYFPDVTVTWEVDGTTQTTGIENSKTPQNSADCTYNLSSTLTLTSTQYNSHKEYTCKVTQGTTSVVQSFNRGDC
The Kd is the concentration at which binding is half-saturated. A higher Kd goes with weaker binding. In general, koff refers to a measure of how fast the partners let go of each other. What is called kon is a measure of how fast the partners come together. The low end stands for slow association, the high end for fast association. In the case of B1, the Kd turned out to be 3.27 nM, the koff stood at 0.000393 s⁻¹ and the kon stood at 120000 M⁻¹ s⁻¹.

(Values after patent US12649778.)
